Assay results as given in paper PMC9242648.

Assays:
[1] = biological target: human regulatory light chain (MYL2) (UniProt P10916); assay: Coomassie SDS-PAGE gel-based light chain loading assay; settings: read off a plot
[2] = biological target: human essential light chain (MYL3) (UniProt P08590); assay: as above; settings: read off a plot

human β-cardiac myosin 2-hep heavy chain, wild type D778V
ratio to parent [1]: 1.3
ratio to parent [2]: 1.1

human β-cardiac myosin 2-hep heavy chain, wild type L781P
ratio to parent [1]: 1.2
ratio to parent [2]: 0.99
